Reference: patent US20220073608A1 (JIANGSU HUAIYU PHARMACEUTICAL, published 2022)

T1: mouse SEMA4D, full length, on CHO-K1 cells (CHO-K1 mSEMA4D) (mouse, UniProt O09126 24-861)
T1 construct: whole, on cells; also called murine SEMA4D recombinant cells
T1 sequence (looked up): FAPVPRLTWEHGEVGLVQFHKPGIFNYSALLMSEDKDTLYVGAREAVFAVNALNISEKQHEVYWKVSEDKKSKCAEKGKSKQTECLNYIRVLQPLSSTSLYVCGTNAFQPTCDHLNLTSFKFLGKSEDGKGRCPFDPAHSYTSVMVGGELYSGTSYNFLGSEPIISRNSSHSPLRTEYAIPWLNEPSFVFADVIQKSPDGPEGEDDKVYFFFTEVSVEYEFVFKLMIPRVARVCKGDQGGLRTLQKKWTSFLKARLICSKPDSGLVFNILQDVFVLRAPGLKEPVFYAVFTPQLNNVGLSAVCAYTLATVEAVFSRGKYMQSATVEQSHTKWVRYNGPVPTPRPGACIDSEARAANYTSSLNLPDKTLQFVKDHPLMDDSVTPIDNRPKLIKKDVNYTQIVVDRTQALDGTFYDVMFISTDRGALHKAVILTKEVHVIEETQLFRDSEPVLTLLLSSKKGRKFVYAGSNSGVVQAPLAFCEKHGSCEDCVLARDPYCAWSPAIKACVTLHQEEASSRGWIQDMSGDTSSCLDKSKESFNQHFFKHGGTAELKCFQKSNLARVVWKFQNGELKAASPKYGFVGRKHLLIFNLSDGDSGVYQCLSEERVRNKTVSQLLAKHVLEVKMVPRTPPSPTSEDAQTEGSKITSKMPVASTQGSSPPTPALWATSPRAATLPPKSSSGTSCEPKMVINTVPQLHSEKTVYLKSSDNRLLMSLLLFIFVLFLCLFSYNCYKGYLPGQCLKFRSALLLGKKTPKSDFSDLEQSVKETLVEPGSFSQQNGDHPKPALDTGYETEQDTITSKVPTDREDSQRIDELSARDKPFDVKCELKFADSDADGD

T2: hSEMA4D ECD-His (His-tagged human SEMA4D protein extracellular domain, Met22-Arg734) (human, UniProt Q92854 22-734)
T2 construct: Expressed in CHO-S cells, purified on Ni column; also called protein immunogen; immunogen A; not shown: His tag of the pCP vector
T2 sequence: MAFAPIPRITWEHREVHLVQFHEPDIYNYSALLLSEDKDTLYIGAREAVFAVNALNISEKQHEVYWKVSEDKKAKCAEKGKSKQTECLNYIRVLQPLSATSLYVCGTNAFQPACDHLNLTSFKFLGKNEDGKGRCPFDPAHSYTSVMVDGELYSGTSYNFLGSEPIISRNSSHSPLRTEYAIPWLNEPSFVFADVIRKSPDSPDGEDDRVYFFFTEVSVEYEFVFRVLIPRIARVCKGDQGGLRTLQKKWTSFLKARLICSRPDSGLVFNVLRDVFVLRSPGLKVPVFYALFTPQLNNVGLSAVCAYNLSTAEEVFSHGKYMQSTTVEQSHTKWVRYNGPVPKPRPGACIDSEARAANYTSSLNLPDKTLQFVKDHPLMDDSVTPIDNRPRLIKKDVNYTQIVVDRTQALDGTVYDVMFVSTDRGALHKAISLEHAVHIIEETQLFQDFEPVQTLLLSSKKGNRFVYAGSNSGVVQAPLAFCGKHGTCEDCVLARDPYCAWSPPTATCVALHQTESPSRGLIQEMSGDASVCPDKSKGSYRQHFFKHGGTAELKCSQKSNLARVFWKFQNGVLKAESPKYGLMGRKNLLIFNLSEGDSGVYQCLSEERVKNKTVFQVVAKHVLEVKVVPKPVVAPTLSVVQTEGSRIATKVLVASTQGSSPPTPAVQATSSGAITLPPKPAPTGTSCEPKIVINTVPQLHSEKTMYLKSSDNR


Assays:
[1] = biological target: T1, mouse SEMA4D, full length, on CHO-K1 …; assay: FACS, CHO-K1 mSEMA4D cells; Ab 0.0213 nM
Method: After the cells were counted, they were diluted with PBS to 2×10⁶ cells per milliliter. After washing, 100 μL of diluted and purified leading antibodies was added to each well and the plate was incubated for 1 hour on ice. […] Cells were washed 2 times by centrifugation with FACS buffer. The cells were suspended with 200 μL of FACS buffer, FACS (FACS Verse, purchased from BD) was used to detect and analyze the results.

[2] = biological target: T2, hSEMA4D ECD-His (His-tagged human …); assay: ELISA, coated hSEMA4D ECD-His; Ab 1.33 nM
Method: First, hSEMA4D ECD-His was diluted with PBS to a final concentration of 1.0 μg/mL, and then was added to a 96-well ELISA plate, 100 μL per well, sealed with plastic film and incubated overnight at 4° C. On the next day, the plate was washed with a plate washing solution, that is, PBS buffer containing 0.05% (v/v) Tween20, for 4 times, and added with blocking solution, that is, PBS buffer containing 0.05% (v/v) Tween20 and 2% (w/w) BSA, blocked at 37° C. for 1 hour. The blocking solution was poured out and the plate was washed 4 times with the plate washing solution. 100 μL of the purified leading antibodies obtained in Examples 1 and 2 was added to each well. After incubation at 37° C. for 1 hour, the plate was washed 4 times with a plate washing solution. 100 μL of horseradish peroxidase (HRP) labeled secondary antibody (purchased from Sigma) was added at a dilution of 1:10000 to each well, and the plate was incubated at 37° C. for 1 hour, and washed 4 times with a plate washing solution. 100 μL TMB substrate was added to each well, and the plate was incubated at room temperature for 5 minutes, and added with 100 μL stop solution (1.0N HCl) to each well. A microplate reader (SpectraMax M5e, purchased from Molecular Device) was used to read the A450 nm value. […] Wherein, the data in the table was the OD450 nm value.

MFI [1]	OD450 nm [2]	Binder
30.5	1.39	37F11F9 (antibody, V domains shown, Mouse monoclonal antibody purified from hybridoma supernatant on protein A) VH: EVQLQQSGPVLVKPGASVKMSCKASGYTFTDYYMNWVKQSHGKSLEWIGLINPYSGGSTFNQKFKAKATLTVDKSSSSAYMDLNSLTSEDSAVYYCARVGDGYYGVTHGMDYWGQGTSVTVSS VL: DIVMTPSQKFMSTTVGDRVSITCKASQNVGTAVAWYQQKPGQSPTILIYSASNRYTGVPDRFTGSGSGTDFTLTISNMKSEDLADYFCQQYYIYPFTFAAGTKLELK
30.8	0.91	37C4F7 (antibody, V domains shown, Mouse monoclonal antibody purified from hybridoma supernatant on protein A) VH: EFQLQQSGPEVVKPGASVKISCKASGYSFTDYNMNWMKQSKGKSLEWIGVINPNYGTTTYNQNFKGKATLTVDQSSSTAYMQLNSLTSEDSAVYYCARDMYYVYAYYTMDYWGQGTSVTVSS VL: DVVMTQTPLSLPVSLGDQASISCRSSQSLVHSNGHTYLHWYLQRPGQSPTLLIYKVSNRFSGVPDRFSGSGSGTDFTLKISRVEAEDLGVYFCSQGTHVPWTFGGGTKLEIK
30.1	1.1	38H2E3 (antibody, V domains shown, Mouse monoclonal antibody purified from hybridoma supernatant on protein A) VH: EFQLQQSGPEVVKPGASVKISCKASGYSFTDYNMNWMKQSKGKSLEWIGVISPDYGTTTYNQNFKDKATLTVDQSSSTAYMQLNSLTSEDSAVYYCAKDMYYVYAYYTMDYWGHGTSVTVSS VL: DVVMTQTPLSLPVSLGDQASISCRSSQSLVHSNGHTYLHWYLQRPGQSPTLLIYKVSNRFSGVPDRVSGSGSGTDFTLKISRVEAEDLGVYFCSQGTHVPRTFGGGTKLEIK
31.6	1.87	42B7G2 (antibody, V domains shown, Mouse monoclonal antibody purified from hybridoma supernatant on protein A) VH: QVQLQQSGAELARPGASVKLSCKASGYTFTDYGISWVKQRTGQGLEWIGEIYLRNDNSYYNEKFKGKATLTADKSSNTAYMELRSLTSEDSAVYFCARWGDHGNNYEDAMDYWGQGTSVTVSS VL: DIVLTQSPASLAMSLGKRATISCRASESVSIIGSNLIHWYQQKPGQPPKLLIYHASNLETGVPARFSGSGSRTDFTLTIDPVEEDDVAIYYCLQSRKVPYTFGGGTKLEIK
29.5	1.87	32C8F10 (antibody, V domains shown, Mouse monoclonal antibody purified from hybridoma supernatant on protein A) VH: EVQLQQSGAELVRPGASVKLSCTASGFNIKDEYIHWVKQRPEQGLEWIGWIDPANGHTEYASRFQAKATITADTSSNTAYLQLSSLTSEDTAVYYCTTGDYDGFAYWGQGTLVTVST VL: QIVLTQSPAIMSASPGEKVTISCSARSSVSYMYWYQQKPGSSPKPWIYRTSNLASGVPARFSGSGSGTSYSLTISSMEAEDAATYYCQHYHTYPYTFGGGTKLEIK
30.8	1.67	31C11G2 (antibody, V domains shown, Mouse monoclonal antibody purified from hybridoma supernatant on protein A) VH: EVQLQQSGAELVRPGASVKLSCTASGFNIKDEYIHWVKQRPEQGLEWIGWIDPANGHTEYASRFQAKATITADTSSNTAYLQLSSLTSEDTAVYYCTTGDYDGFVYWGQGTLVTVST VL: QIVLTQSPAIMSASPGEKVTIFCSARSSVSYMYWYQQKPGSSPKPWIYRTSNLASGVPARFSGSGSGTSYSLTISSMEAEDAATYYCQHYHTYPYTFGGGTKLEIK
29.6	1.52	31G10C5 (antibody, V domains shown, Mouse monoclonal antibody purified from hybridoma supernatant on protein A) VH: EVQLQQSGAELVRPGASVKLSCTASGFNIKDDYIHWVKQRPEQGLEWIGWIDPANGHIEYASNFQAKATITADTSSNTAYLQLSSLTSEDTAVYYCTTGDYDGFTYWGQGTLVTVST VL: QIVLTQSPAIMSASPGEKVTISCSARSSVSYMYWYQQKPGSSPKPWIYRTSNLASGVPARFSGSGSGTSYSLTISSMEAEDAATYYCQHYHTYPYTFGGGTKLEIK
